# Patent US20210347873A1 (SHANGHAI PHARMAEXPLORER, published 2021)
# Positions count from the first letter of the chain named.
# B1: 97A3C2H4 (antibody, V domains shown)
# VH: EVKLVESGGGLVQPGGSLKLSCAASGFTFSTYTMSWVRQTPEKRLEWVAYISYGGGSTSYPDTVKGRFTISRDNAKNTLYLQMSSLKSEDTAIYYCTRHVTVVENSMDYWGQGTSVTVSS
# VL: DILLTQSPDILSVSPGERVSFSCRASQSIGTSIHWYQQRTNGSPRLLIKYVSESFSGTPSRFSGSGSGTAFTLTINSVESEDIADYYCQQTHSWPWTFGGGTKLEIK
# notes: Mouse hybridoma monoclonal antibody purified on Protein G
# B2: 111D10D6G3 (antibody, V domains shown)
# VH: QVQLQQPGAELVKPGASVKMSCKASGYTFTRHWITWVKQRPGQGLEWIGDIFPGSGSINYNEKFKSEATLTVEKSSSTAYMQLSSLTSEDSAVYYCARGDVDVWGTGTTVTVSS
# VL: DIQMTQSPSSLSASLGERVSLTCRASQEIRGYLSWLQQKPNGTIKRLIYAASTLDSGVPKRFSATRSGSDFSLTISSLESEDFADYYCLQYASYPFTFGSGTKLEIK
# notes: as for B1
# B3: 8E7D9C7F5 (antibody, V domains shown)
# VH: QVQLQQSGVELARPGASVKLSCKASGYTFTSYGISWVKQRTGQALEWIGEIYPRSGNTYYNEKFKGKATLTADKSSSTAYMELRSLTSEDSAVYFCARSGPITTLVATDYGMDYWGQGTSVTVSS
# VL: DIVLTQSPASLAVSLGQRATISCRASKSVSTSSYSYMHWYQQKPGQPPKLLIKFASNLESGVPARFSGSGSGTDFTLNIHPVEEEDAATYYCQHSREFPYTFGGGTKLEIK
# notes: as for B1
# B4: L1D12 (antibody, V domains shown)
# VH: QVQLVQSGGGLVQPGGSLRLSCAASGFTVSSNYMSWVRQAPGKGLEWVSVIYSGGSTYYADSVKGRFTISRDNSKNTLYLQMNSLRAEDTAVYYCARGFHDILTGYGMDVWGQGTTVTVSS
# VL: SSELTQDPAVSVALGQTVRITCQGDSLRNYYAGWYQQKPGQAPVLVIYGKNNRPSGIPDRFSGSSSGNTASLTITGTQAEDEADYYCSSRDNSGTHLVEFGGGTKLTVL
# notes: From a human naive scFv phage library; also called human BLyS antibody L1D12; LID12
# B5: 2-1G11 (antibody, V domains shown)
# VH: EVQLVESRGGVVQPGRSLRLSCAASGFTFSSYGMHWVRQAPGKGLEWVAVISYDGSNKYYADSVKGRFTISRDNSKNTLYLQMNSLRAEDAAVYYCARDRVDILTGYSIYGMDVWGQGTTVTVSS
# VL: EIVMTQSPATLSLSPGERATLSCRASQSVSSYLAWYQQKPGQAPRLLIYDASKRATGIPARFSGSGSGTDFTLTISSLEPEDFAVYYCQQRSNWPLTFGGGTKVEIK
# notes: From a human naive scFv phage library; also called human BLyS antibody 2-1G11
# B6: L9G7 (antibody, V domains shown)
# VH: QIQLVQSGAEVKKPGASVKVSCKASGYTFTSYGISWVRQAPGQGLEWMGWISAYNGNTNYAQKLQGRVTMTTDTSTSTAYMELRSLRSDDTAVYYCARTYYDILTGYYYYGMDVWGQGTTVTVSS
# VL: B5 VL with M4L, A9G, A25T, S30D, S31T, K53N
# notes: From a human naive scFv phage library; also called human BLyS antibody L9G7
# B7: 97A3C2H4 (antibody, V domains shown)
# VH: B1 VH
# VL: B1 VL
# notes: Mouse hybridoma antibody purified on Protein G
# B8: 111D10D6G3 (antibody, V domains shown)
# VH: B2 VH
# VL: B2 VL
# notes: as for B7
# B9: L1D12 (antibody, human IgG1, V domains shown)
# VH: B4 VH
# VL: B4 VL
# notes: also called LID12
# B10: L9G7 (antibody, human IgG1, V domains shown)
# VH: B6 VH
# VL: B5 VL with M4L, A9G, A25T, S30D, S31T, K53N
# Biological target: T1, biotinylated hBLyS-ECD (human, UniProt Q9Y275 134-285, biotinylated with Biotin-X-X-NHS (molar ratio 7:1); sites not stated)
# T1 construct: also called biotinylated immunogen; BLyS protein
# T1 sequence (Q9Y275 134-285): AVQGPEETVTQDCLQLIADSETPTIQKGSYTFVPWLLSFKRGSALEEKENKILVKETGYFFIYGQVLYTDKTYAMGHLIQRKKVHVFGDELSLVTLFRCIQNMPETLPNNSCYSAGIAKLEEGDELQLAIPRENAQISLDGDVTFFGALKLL
# Assay: blocking ELISA: biotinylated hBLyS-ECD on coated BAFF R, antibody 20 nM
# Procedure: (§1) BAFF R (purchased from R & D Systems) was aliquoted into 96-well ELISA plate at 50 ng per well, and the plate was sealed with plastic film and incubated overnight at 4° C. On the next day the plate was washed four times with the plate washing buffer [PBS buffer containing 0.05% (v/v) Tween20] and added with blocking solution [PBS buffer containing 0.05% (v/v) Tween20 and 1% (w/w) BSA], then blocked for 1 hour at room temperature. The blocking solution was removed and 50 μL per well of the lead antibodies prepared in Embodiment 1 and 2 were added followed by the addition of 50 μL per well of the biotinylated hBLyS-ECD prepared in Embodiment 2. After incubation for 1 hour at 37° C., the plate was washed four times with the plate washing buffer [PBS buffer containing 0.05% (v/v) Tween20]. 100 μL per well of HRP-labeled (horseradish peroxidase) avidin (purchased from Sigma) was added and incubated at 37° C. for 1 hour. The plate was then washed four times with the plate washing buffer [PBS buffer containing 0.05% (v/v) Tween20]. 100 μL of TMB substrate was aliquoted into each well and after incubation for 5 minutes at room temperature, then 100 μL of stop solution (1.0 N HCl) was aliquoted into each well. A₄₅₀ₙₘ values were read with an ELISA plate reader (SpectraMax 384plus, Molecular Device) and the results were shown in FIGS. 9A-9B and Table 15. It was shown in Table 15 that the binding of BLyS protein to its receptor BAFF R could be blocked by the BLyS antibody.
row,Binder,OD450 nm [OD450 nm]
1,B1,0.125
2,B2,0.616
3,B3,0.133

# Biological target: T1, biotinylated hBLyS-ECD
# Assay: competitive ELISA on biotinylated hBLyS-ECD; competitor 2-1G11
# Procedure: The purified human BLyS antibody and hybridoma antibody were subjected to competitive enzyme-linked immunosorbent assay and the epitopes binding by different antibodies were analyzed.
# Purified BLyS antibody was first diluted to a final concentration of 1.0 μg/mL with PBS, then aliquoted into a 96-well ELISA plate at 50 μL per well, and the plate was subsequently sealed with plastic film and incubated at 4° C. overnight. On the next day the plate was rinsed four times with the plate washing buffer [PBS buffer containing 0.05% (v/v) Tween20] and mixed with blocking solution [PBS buffer containing 0.05% (v/v) Tween20 and 1% (w/w) BSA], and then blocked at 37° C. for 1 hour. The blocking solution was removed, and the competitive antibody and IgG control were diluted to a final concentration of 40 μg/mL with PBS and then aliquoted into the 96-well ELISA plate at 50 μL per well. The biotinylated hBLyS-ECD was then diluted with PBS to a final concentration of 2 ng/mL and pipetted into the 96-well ELISA plate at 50 μL per well. The final concentration of competitive antibody and hBLyS-ECD was 20 μg/mL and 1 ng/mL, respectively. After incubation at 37° C. for 1 hour, the plate was rinsed four times with the plate washing buffer [PBS buffer containing 0.05% (v/v) Tween20]. 100 μL per well of HRP-labeled (horseradish peroxidase) streptavidin (purchased from Sigma) was added into the plate and the plate was incubated at 37° C. for 1 hour. The plate was then washed four times with the plate washing buffer [PBS buffer containing 0.05% (v/v) Tween20]. 100 μL of TMB substrate was aliquoted into each well and after incubation at room temperature for 5 minutes, 100 μL of stop solution (1.0 N HCl) was aliquoted into each well. A₄₅₀ₙₘ values were read by an ELISA plate reader (SpectraMax M5e, purchased from Molecular Device) and the results were shown in Tables 18A-18B. […] The data shown in the table is the inhibitory rate (%) of the binding level of the original antibody to hBLyS-ECD after addition of the competitive antibody.
row,Binder,inhibitory rate (%)
1,B4,94
2,B5,82
3,B6,96

# Biological target: T2, biotinylated hBLyS-ECD (human, UniProt Q9Y275 134-285, biotinylated with Biotin-X-X-NHS (molar ratio 7:1), sites not stated)
# T2 construct: The hBLyS-ECD of Embodiment 1 after biotinylation (Embodiment 2); also called biotinylated immunogen; BLyS protein; not shown: His tag of the pCPC vector
# T2 sequence (Q9Y275 134-285): as above
# Assay: ELISA, biotinylated hBLyS-ECD captured on streptavidin; antibody 66.7 nM
# Procedure: (§2) Streptavidin was first diluted to a final concentration of 1.0 μg/mL with PBS, and then 50 μL of diluted streptavidin per well was aliquoted into 96-well ELISA plate, which was subsequently sealed with plastic film and incubated at 4° C. overnight. On the next day the plate was washed four times with the plate washing buffer [PBS buffer containing 0.05% (v/v) Tween20] and added with the blocking solution [PBS buffer containing 0.05% (v/v) Tween20 and 1% (w/w) BSA] and blocked for 2 hours at 37° C. The blocking solution was removed, the biotinylated hBLyS-ECD prepared in Embodiment 2 was diluted with PBS to a final concentration of 50 ng/mL and then aliquoted into the 96-well ELISA plate at 50 μL per well and incubated for 1 hour at 37° C. After rinsing the plate four times with the plate washing buffer [PBS buffer containing 0.05% (v/v) Tween20], 100 μl of the purified lead antibody harvested in Embodiment 1 and 2 was pipetted into each well. After incubation for 1 hour at 37° C., the plate was rinsed four times with the plate washing buffer [PBS buffer containing 0.05% (v/v) Tween20]. HRP-labeled (horseradish peroxidase) secondary antibody (purchased from Sigma) was added in and incubated at 37° C. for 1 hour. The plate was then rinsed four times with the plate washing buffer [PBS buffer containing 0.05% (v/v) Tween20]. 100 μL of TMB substrate was aliquoted into each well and after incubation for 5 minutes at room temperature, 100 μL of stop solution (1.0 N HCl) was aliquoted into each well. A₄₅₀ₙₘ values were read via an ELISA plate reader (SpectraMax M5e purchased from Molecular Devices) and the results were shown in FIGS. 5A-5B and Table 10.
row,Binder,OD450 nm
1,B7,2.98
2,B8,1.94
3,B9,1.75
4,B10,1.81

# Biological target: T1, biotinylated hBLyS-ECD
# Assay: blocking ELISA: biotinylated hBLyS-ECD on coated BAFF R, antibody 0.16 nM
# Procedure: as §1
row,Binder,OD450 nm [OD450 nm]
1,B1,0.816
2,B2,0.911
3,B3,0.61

# Biological target: T2, biotinylated hBLyS-ECD
# Assay: ELISA, biotinylated hBLyS-ECD captured on streptavidin; antibody 0.0213 nM
# Procedure: as §2
row,Binder,OD450 nm
1,B7,0.283
2,B8,0.194
3,B9,0.262
4,B10,0.181

# Biological target: T2, biotinylated hBLyS-ECD
# Assay: ELISA, biotinylated hBLyS-ECD captured on streptavidin; antibody 0.00427 nM
# Procedure: as §2
row,Binder,OD450 nm
1,B7,0.105
2,B8,0.082
3,B9,0.135
4,B10,0.0853
